The results in this text go back to article PMC10655040.

The assay has as its target CXCR4 (human (endogenous in HeLa)) (UniProt P61073). In words: flow cytometry on cells; competition on HeLa cells: 100 nM sfGFP(Y151pAzF)-SDF-1β coincubated with 1 μM commercial SDF-1β (R&D) or 1 μM CXCR4 blocking agent AMD3100; 10 000 cells per sample. (In general: Flow cytometry measures light scatter and fluorescence of single cells or particles in a stream.)
Sequence of UniProt P61073 (P61073 whole entry): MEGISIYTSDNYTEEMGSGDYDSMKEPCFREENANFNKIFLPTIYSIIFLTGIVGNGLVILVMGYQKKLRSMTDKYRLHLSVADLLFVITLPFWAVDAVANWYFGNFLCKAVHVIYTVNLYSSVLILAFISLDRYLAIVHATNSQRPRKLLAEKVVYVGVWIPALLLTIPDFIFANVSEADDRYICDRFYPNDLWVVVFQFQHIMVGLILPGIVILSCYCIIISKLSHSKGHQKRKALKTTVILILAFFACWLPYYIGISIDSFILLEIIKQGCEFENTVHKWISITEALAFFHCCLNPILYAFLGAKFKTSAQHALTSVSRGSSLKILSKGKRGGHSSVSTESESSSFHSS

Take sfGFP(Y151pAzF)-SDF-1β (ligand): the percent decrease of binding to HeLa cells with 1 μM AMD3100 (CXCR4 blocking agent) was 30%.
